Measurements from PMC11908824, “UGT74B5-mediated glucosylation at ortho hydroxyl groups of benzoic acid derivatives regulating plant immunity to anthracnose in tea plants” (Horticulture Research, 2025).

Experiments:
[1] = substrate: O=C(O)c1c(O)cccc1O; test: LC-MS glucosyltransferase assay; type: biochemical, Camellia sinensis; conditions: 2.5 mM UDP-glucose, optimal conditions (pH 8.0-8.5, 30°C), 0-300 μM substrate
[2] = substrate: O=C(O)c1ccccc1O; test: LC-MS glucosyltransferase assay; type: biochemical, Camellia sinensis; conditions: 2.5 mM UDP-glucose, optimal conditions (pH 8.0-8.5, 30°C), 0-300 μM substrate

B1: CsUGT74B5 (rCsUGT74B5) (Camellia sinensis) (protein)
chain: MEQRNHGGHVVVLPYPSQGHINPLLQFAKRLASKGVKATLATTHYTVKSICVPNIAVEPISDGFDNGGFTQARAEDVYLKSLRENGSRTLSQLIEKHKNTNFPINCVVYDSFFPWALDVAKTHGIYGAPFFTNSATVCAIFCHVHHGLVKLPVKVEELPLVLPGIPPLNLVDLPSFVQAPESYPAYLAMKLSQYSNLDKADWVFGNTFEELEGEAVKNVLELWPGKMIGPMVPSAYLDGRIEEDKGYGASLWKPLSSDCAKWLEAKPSQSVVYVSFGSMVSLTEEQMEEMAWGLKGSNLDFIWVVRESEITKLPSEFTNSTAQEKGLIVTWCNQLEMLAHQAIGCFVTHCGWNSTLEGLSLGVPMVGVPKWTDQLTDAKFIEEIWGVGFRAKEDEKGVVRREELMGCLKEVMEGERSVEIRKNCCKWKELAKEAISEGGSSDKSIDEFVEQLKSGNEKGVVKYLTNGNGHY
notes: full CDS in pMAL-c2X (N-terminal MBP fusion, tag cleavage not mentioned), expressed in E. coli Novablue (DE3), amylose resin purified
- Km [1]: 15.26 µM
- Km [2]: 42.01 µM
